The record followed here is patent US20070166779.

Data set [1] has as its target T1, SLPI present in human saliva.
T1 chain: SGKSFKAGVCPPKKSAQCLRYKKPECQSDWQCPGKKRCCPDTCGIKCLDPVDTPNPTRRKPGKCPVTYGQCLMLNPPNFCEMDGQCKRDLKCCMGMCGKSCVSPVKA

For another data set, the target named is T2, recombinant human SLPI.
T2 chain: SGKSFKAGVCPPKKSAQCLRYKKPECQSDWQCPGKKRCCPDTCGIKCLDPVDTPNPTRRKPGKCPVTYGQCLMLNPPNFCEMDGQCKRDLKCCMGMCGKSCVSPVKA

B1: proteinase 3 (protein)
chain: IVGGHEAQPHSRPYMASLQMRGNPGSHFCGGTLIHPSFVLTAAHCLRDIPQRLVNVVLGAHNVRTQEPTQQHFSVAQVFLNNYDAENKLNDVLLIQLSSPANLSASVATVQLPQQDQPVPHGTQCLAMGWGRVGAHDPPAQVLQELNVTVVTFFCRPHNICTFVPRRKAGICFGDSGGPLICDGIIQGIDSFVIWGCATRLFPDFFTRVALYVDWIRSTLR
As to B1, the “cleavage of SLPI in human saliva, Western analysis” value (“cleavage of SLPI in human saliva” for short) in data set [1] was “The larger SLPI cleavage product was not observed when the saliva samples were incubated with cathepsin G, tryptase and proteinase 3”. In addition, in the data set with recombinant human SLPI, the “cleavage of rSLPI, LC/MS (1 ug rSLPI, 50 ng protease, 5 hours)” value was “did not result in the formation of the second peak” and the “cleavage of the reduced form of rSLPI” value was “Reduction of the rSLPI samples in the presence of the proteases did result in cleavage of the SLPI protein”.

B2: elastase (protein)
chain: IVGGRRARPHAWPFMVSLQLRGGHFCGATLIAPNFVMSAAHCVANVNVRAVRVVLGAHNLSRREPTRQVFAVQRIFENGYDPVNLLNDIVILQLNGSATINANVQVAQLPAQGRRLGNGVQCLAMGWGLLGRNRGIASVLQELNVTVVTSLCRRSNVCTLVRGRQAGVCFGDSGSPLVCNGLIHGIASFVRGGCASGLYPDAFAPVAQFVNWIDSIIQ
Regarding B2, the “cleavage of SLPI in human saliva” value in data set [1] is “Minor digestion of SLPI was observed after the saliva was incubated with elastase”. Moreover, in the data set with recombinant human SLPI, the “cleavage of rSLPI, LC/MS (1 ug rSLPI, 50 ng protease, 5 hours)” value is “did not result in the formation of the second peak” and the “cleavage of the reduced form of rSLPI” value is “Reduction of the rSLPI samples in the presence of the proteases did result in cleavage of the SLPI protein”.

B3: human chymase (protein)
chain: IIGGTECKPHSRPYMAYLEIVTSNGPSKFCGGFLIRRNFVLTAAHCAGRSITVTLGAHNITEEEDTWQKLEVIKQFRHPKYNTSTLHHDIMLLKLKEKASLTLAVGTLPFPSQFNFVPPGRMCRVAGWGRTGVLKPGSDTLQEVKLRLMDPQACSHFRDFDHNLQLCVGNPRKTKSAFKGDSGGPLLCAGVAQGIVSYGRSDAKPPAVFTRISHYRPWINQILQAN
On to B3, for which, in data set [1], the “cleavage of SLPI in human saliva” value is on record as “exogenous chymase cleaved SLPI in the saliva sample as it did with the rSLPI”. In the data set with recombinant human SLPI, the “cleavage of rSLPI at ten-fold excess of rSLPI (data not shown)” value is reported as “Even in a ten-fold excess of rSLPI to chymase most of the rSLPI protein was cleaved”; the “cleavage of rSLPI, LC/MS (second peak with additional 18 mass units)” value is given as “the presence of the second peak indicated that chymase indeed cleaved rSLPI”; the “cleavage of rSLPI, SDS-PAGE with Coomassie stain (rSLPI:chymase molar ratio 40:1, 37 C)” value is “cleavage of recombinant human SLPI was observed after rSLPI was incubated with human chymase for about 20 minutes”.

B4: cathepsin G (protein)
chain: IIGGRESRPHSRPYMAYLQIQSPAGQSRCGGFLVREDFVLTAAHCWGSNINVTLGAHNIQRRENTQQHITARRAIRHPQYNQRTIQNDIMLLQLSRRVRRNRNVNPVALPRAQEGLRPGTLCTVAGWGRVSMRRGTDTLREVQLRVQRDRQCLRIFGSYDPRRQICVGDRRERKAAFKGDSGGPLLCNNVAHGIVSYGKSSGVPPEVFTRVSSFLPWIRTTMRS
As to B4, the “cleavage of SLPI in human saliva” value in data set [1] is “The larger SLPI cleavage product was not observed when the saliva samples were incubated with cathepsin G, tryptase and proteinase 3”. Moreover, in the data set with recombinant human SLPI, the “cleavage of rSLPI, LC/MS (1 ug rSLPI, 50 ng protease, 5 hours)” value is recorded as “did not result in the formation of the second peak” and the “cleavage of the reduced form of rSLPI” value is “Reduction of the rSLPI samples in the presence of the proteases did result in cleavage of the SLPI protein”.
